In article PMC11472046:

Tests used:
[1] = target: H3K9me3 mononucleosome; assay: native gel or EMSA; varying concentrations of Chp2 with 50 nM mononucleosomes; 20 mM HEPES pH 7.5, 4 mM Tris, 80 mM KCl, 0.1% Igepal CA-630, 0.2 mM EDTA, 2 mM DTT, 10% glycerol; 4°C, 30 min; unbound nucleosome band quantified; apparent affinity (K1/2)
[2] = target: H3K9 methylated (H3K9me) histones in chromatin (S. pombe (endogenous in S. pombe cells)); assay: live-cell single-molecule tracking (NOBIAS mobility states, Bayesian Synthetic Likelihood rate inference); PAmCherry-tagged protein photoactivated and tracked in the nucleus of living S. pombe, 40-ms frames, room temperature; Chp2 from the nmt81 promoter, Epe1 from its own or the nmt1 promoter; WT cells, with clr4Δ and swi6Δ cells as comparison
[3] = target: H3K9 methylated (H3K9me) histones in chromatin (S. pombe (endogenous in S. pombe cells)); assay: live-cell single-molecule time-lapse imaging; residence times of stationary PAmCherry-tagged molecules in living WT S. pombe; 200-ms integration time with different dark delay times; kdiss from a linear fit that separates photobleaching
[4] = target: H3K9 methylated (H3K9me) histones in chromatin (S. pombe (endogenous in S. pombe cells)); assay: live-cell single-molecule time-lapse imaging; as a4, but PAmCherry-Chp2-low in swi6Δ cells
[5] = target: H3K9 methylated (H3K9me) histones in chromatin (S. pombe (endogenous in S. pombe cells)); assay: live-cell single-molecule tracking (NOBIAS mobility states, Bayesian Synthetic Likelihood rate inference); as a2, but PAmCherry-Chp2 expressed from the nmt41 promoter (5x higher level)
[6] = target: H3K9 methylated (H3K9me) histones in chromatin (S. pombe (endogenous in S. pombe cells)); assay: live-cell single-molecule time-lapse imaging; residence times of stationary PAmCherry-tagged molecules in living WT S. pombe; 200-ms integration time with different dark delay times; kdiss from a linear fit that separates photobleaching; remark: listed apart in the source

PAmCherry-Chp2, sequence (O42934 whole entry): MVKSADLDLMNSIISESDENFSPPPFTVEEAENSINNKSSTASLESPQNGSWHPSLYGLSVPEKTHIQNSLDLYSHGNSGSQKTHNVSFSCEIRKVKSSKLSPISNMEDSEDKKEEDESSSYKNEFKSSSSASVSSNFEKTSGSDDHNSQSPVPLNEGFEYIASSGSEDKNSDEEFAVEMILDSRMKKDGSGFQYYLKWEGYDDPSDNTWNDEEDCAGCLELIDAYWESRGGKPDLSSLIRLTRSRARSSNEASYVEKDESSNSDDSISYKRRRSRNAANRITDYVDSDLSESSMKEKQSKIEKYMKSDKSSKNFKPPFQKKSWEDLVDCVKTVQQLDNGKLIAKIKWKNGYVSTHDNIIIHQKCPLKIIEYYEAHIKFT
PAmCherry-Swi6, sequence (P40381 whole entry): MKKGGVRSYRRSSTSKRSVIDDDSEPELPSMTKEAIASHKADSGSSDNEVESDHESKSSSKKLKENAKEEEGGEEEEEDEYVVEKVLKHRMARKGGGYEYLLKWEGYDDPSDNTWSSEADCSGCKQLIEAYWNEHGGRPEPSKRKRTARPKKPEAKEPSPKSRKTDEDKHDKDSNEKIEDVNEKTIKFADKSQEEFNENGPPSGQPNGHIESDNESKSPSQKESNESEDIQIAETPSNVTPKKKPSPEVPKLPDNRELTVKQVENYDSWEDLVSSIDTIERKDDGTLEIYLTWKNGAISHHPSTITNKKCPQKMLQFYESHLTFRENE
Chp2-WT (recombinant), sequence (O42934 whole entry): as the sequence (O42934 whole entry) above

| weight fraction of the low mobility (H3K9me-bound) state [2] | average dwell time [3] | koff [3] | Substance | other results |
| --- | --- | --- | --- | --- |
| – | – | – | Chp2-WT (recombinant) (from UniProt O42934 1-380) (natural protein) | specificity for H3K9me over H3K9me0 nucleosomes [1]: 2 fold |
| 10% | – | – | PAmCherry-Chp2 W199A (from UniProt O42934 1-380) (natural protein) | – |
| > 92% | 3.85 s | 0.26 s⁻¹ | PAmCherry-Chp2 (from UniProt O42934 1-380) (natural protein) | koff [2]: 0.479 s⁻¹; average dwell time [4]: 3.72 s; koff [4]: 0.269 s⁻¹; weight fraction of the low mobility (H3K9me-bound) state [5]: > 90% |
| – | 2.2 s | 0.454 s⁻¹ | PAmCherry-Swi6 (from UniProt P40381 1-328) (natural protein) | average dwell time [6]: 2.22 s |
